# Data reported in the supplement of paper PMC10567573.
# B1: MYL5 (parent)
# chain: DVAGNLDYKALSYVITHGEEKEE
# Variants of: B1
# Assay: protein stability index of a GFP-peptide fusion (GPS, HEK-293T) (PSI 1-6); higher = more stable
# Conditions: c terminus: native
# 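Further: lentivirally expressed fusions sorted by FACS into six bins by GFP to DsRed ratio, PSI derived from sequencing read proportions per bin multiplied by bin number.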
row,Variant,protein stability index
1,DVAGNLDYKAASYVITHGEEKEE,2.56
2,DVAGNLDYKGLSYVITHGEEKEE,2.1
3,DVAGNLDYKELSYVITHGEEKEE,2.35
4,DVAGNLDYKPLSYVITHGEEKEE,2.28
5,DVAGNLDYKRLSYVITHGEEKEE,1.74
6,DVAGNLDYKNLSYVITHGEEKEE,2.48
7,DVAGNLDYKYLSYVITHGEEKEE,1.22
8,DVAGNLDYKSLSYVITHGEEKEE,2.08
9,DVAGNLDYKHLSYVITHGEEKEE,2
10,DVAGNLDYKILSYVITHGEEKEE,2.24
11,DVAGNLDYKKLSYVITHGEEKEE,3.21
12,DVAGNLDYKLLSYVITHGEEKEE,1.97
13,DVAGNLDYKMLSYVITHGEEKEE,2.23
14,DVAGNLDYKTLSYVITHGEEKEE,1.9
15,DVAGNLDYKWLSYVITHGEEKEE,4.9
16,DVAGNLDYKQLSYVITHGEEKEE,2
17,DVAGNLDYKDLSYVITHGEEKEE,2.09
18,DVAGTLDYKALSYVITHGEEKEE,2.29
19,DVAGVLDYKALSYVITHGEEKEE,2.05
20,DVAGKLDYKALSYVITHGEEKEE,1.97
21,DVAGRLDYKALSYVITHGEEKEE,1.67
22,DVAGILDYKALSYVITHGEEKEE,2.54
23,DVAGELDYKALSYVITHGEEKEE,2.43
24,DVAGHLDYKALSYVITHGEEKEE,1.92
25,DVAGMLDYKALSYVITHGEEKEE,1.3

row,Variant,protein stability index
1,DVAGLLDYKALSYVITHGEEKEE,3.25
2,DVAGGLDYKALSYVITHGEEKEE,2.88
3,DVAGWLDYKALSYVITHGEEKEE,1.83
4,DVAGDLDYKALSYVITHGEEKEE,2.69
5,DVAGFLDYKALSYVITHGEEKEE,1.87
6,DVAGQLDYKALSYVITHGEEKEE,2.61
7,DVAGNYDYKALSYVITHGEEKEE,1.93
8,DVAGNNDYKALSYVITHGEEKEE,3.84
9,DVAGNMDYKALSYVITHGEEKEE,1.76
10,DVAGNWDYKALSYVITHGEEKEE,1.72
11,DVAGNTDYKALSYVITHGEEKEE,2.82
12,DVAGNHDYKALSYVITHGEEKEE,2.28
13,DVAGNGDYKALSYVITHGEEKEE,1.93
14,DVAGNDDYKALSYVITHGEEKEE,2.06
15,DVAGNPDYKALSYVITHGEEKEE,2.01
16,DVAGNVDYKALSYVITHGEEKEE,1.36
17,DVAGNEDYKALSYVITHGEEKEE,2.52
18,DVAGNKDYKALSYVITHGEEKEE,2.06
19,DVAGNCDYKALSYVITHGEEKEE,1.74
20,DVAGNFDYKALSYVITHGEEKEE,2.82
21,DVAGNADYKALSYVITHGEEKEE,2.55
22,DVAGNSDYKALSYVITHGEEKEE,1.7
23,DVAGNQDYKALSYVITHGEEKEE,1.93
24,DVAGNLDAKALSYVITHGEEKEE,2.1
25,DVAGNLDRKALSYVITHGEEKEE,1.75

row,Variant,protein stability index
1,DVAGNLDNKALSYVITHGEEKEE,1.56
2,DVAGNLDEKALSYVITHGEEKEE,2.01
3,DVAGNLDCKALSYVITHGEEKEE,2.32
4,DVAGNLDPKALSYVITHGEEKEE,2.05
5,DVAGNLDHKALSYVITHGEEKEE,1.48
6,DVAGNLDIKALSYVITHGEEKEE,2.11
7,DVAGNLDTKALSYVITHGEEKEE,1.42
8,DVAGNLDQKALSYVITHGEEKEE,1.98
9,DVAGNLDVKALSYVITHGEEKEE,2.62
10,DVAGNLDDKALSYVITHGEEKEE,1.81
11,DVAGNLDKKALSYVITHGEEKEE,1.39
12,DVAGNLDYTALSYVITHGEEKEE,2.18
13,DVAGNLDYCALSYVITHGEEKEE,3.09
14,DVAGNLDYNALSYVITHGEEKEE,2.01
15,DVAGNLDYYALSYVITHGEEKEE,2.3
16,DVAGNLDYPALSYVITHGEEKEE,1.95
17,DVAGNLDYVALSYVITHGEEKEE,2.67
18,DVAGNLDYHALSYVITHGEEKEE,1.53
19,DVAGNLDYRALSYVITHGEEKEE,1.35
20,DVAGNLDYAALSYVITHGEEKEE,2.29
21,DVAGNLDYFALSYVITHGEEKEE,2.23
22,DVAGNLDYGALSYVITHGEEKEE,1.98
23,DVAGNLDYMALSYVITHGEEKEE,1.6
24,DVAGNLDYLALSYVITHGEEKEE,2.75
25,DVAGNLDYDALSYVITHGEEKEE,2.57

row,Variant,protein stability index
1,DVAGNLDYSALSYVITHGEEKEE,1.56
2,DVAGNLMYKALSYVITHGEEKEE,2.11
3,DVAGNLAYKALSYVITHGEEKEE,1.89
4,DVAGNLEYKALSYVITHGEEKEE,2.29
5,DVAGNLFYKALSYVITHGEEKEE,1.04
6,DVAGNLSYKALSYVITHGEEKEE,2.5
7,DVAGNLTYKALSYVITHGEEKEE,1.57
8,DVAGNLKYKALSYVITHGEEKEE,3.18
9,DVAGNLVYKALSYVITHGEEKEE,1.96
10,DVAGNLPYKALSYVITHGEEKEE,1.83
11,DVAGNLGYKALSYVITHGEEKEE,2.02
12,DVAGNLQYKALSYVITHGEEKEE,1.64
13,DVAGNLRYKALSYVITHGEEKEE,1.69
14,DVAGNLHYKALSYVITHGEEKEE,2.83
15,DVAGNLIYKALSYVITHGEEKEE,1.44
16,DVAGNLYYKALSYVITHGEEKEE,2.1
17,DVAGNLNYKALSYVITHGEEKEE,1.91
18,DVARNLDYKALSYVITHGEEKEE,2.5
19,DVASNLDYKALSYVITHGEEKEE,2.09
20,DVAYNLDYKALSYVITHGEEKEE,1.57
21,DVAVNLDYKALSYVITHGEEKEE,1.92
22,DVATNLDYKALSYVITHGEEKEE,2.42
